This note sets out measurements from patent US20090099029.

To fix the notation:
T1: Bovine, dephosphorylated, Myelin Basic Protein (MBP), P02687
T1 chain: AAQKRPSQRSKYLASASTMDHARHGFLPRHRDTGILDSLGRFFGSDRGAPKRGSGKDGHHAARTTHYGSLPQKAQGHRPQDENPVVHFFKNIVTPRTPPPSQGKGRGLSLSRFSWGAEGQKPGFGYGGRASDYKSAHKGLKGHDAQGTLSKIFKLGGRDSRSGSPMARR

B1: EPHA4 (protein)
chain: SRRRSKYSKAKQEADEEKHLNQGVRTYVDPFTYEDPNQAVREFAKEIDASCIKIEKVIGVGEFGEVCSGRLKVPGKREICVAIKTLKAGYTDKQRRDFLSEASIMGQFDHPNIIHLEGVVTKCKPVMIITEYMENGSLDAFLRKNDGRFTVIQLVGMLRGIGSGMKYLSDMSYVHRDLAARNILVNSNLVCKVSDFGMSRVLEDDPEAAYTTRGGKIPIRWTAPEAIAYRKFTSASDVWSYGIVMWEVMSYGERPYWDMSNQDVIKAIEEGYRLPPPMDCPIALHQLMLDCWQKERSDRPKFGQIVNMLDKLIRNPNSLKRTGTESSRPNTALLDPSSPEFSAVVSVGDWLQAIKMDRYKDNFTAAGYTTLEAVVHVNQEDLARIGITAITHQNKILSSVQAMRTQMQQMHGRMVPV
B2: IRAK4 (protein)
chain: MNKPITPSTYVRCLNVGLIRKLSDFIDPQEGWKKLAVAIKKPSGDDRYNQFHIRRFEALLQTGKSPTSELLFDWGTTNCTVGDLVDLLIQNEFFAPASLLLPDAVPKTANTLPSKEAITVQQKQMPFCDKDRTLMTPVQNLEQSYMPPDSSSPENKSLEVSDTRFHSFSFYELKNVTNNFDERPISVGGNKMGEGGFGVVYKGYVNNTTVAVKKLAAMVDITTEELKQQFDQEIKVMAKCQHENLVELLGFSSDGDDLCLVYVYMPNGSLLDRLSCLDGTPPLSWHMRCKIAQGAANGINFLHENHHIHRDIKSANILLDEAFTAKISDFGLARASEKFAQTVMTSRIVGTTAYMAPEALRGEITPKSDIYSFGVVLLEIITGLPAVDEHREPQLLLDIKEEIEDEEKTIEDYIDKKMNDADSTSVEAMYSVASQCLHEKKNKRPDIKKVQQLLQEMTAS
B3: EPHA5 (protein)
chain: SGSCCECGCGRASSLCAVAHPSLIWRCGYSKAKQDPEEEKMHFHNGHIKLPGVRTYIDPHTYEDPNQAVHEFAKEIEASCITIERVIGAGEFGEVCSGRLKLPGKRELPVAIKTLKVGYTEKQRRDFLGEASIMGQFDHPNIIHLEGVVTKSKPVMIVTEYMENGSLDTFLKKNDGQFTVIQLVGMLRGISAGMKYLSDMGYVHRDLAARNILINSNLVCKVSDFGLSRVLEDDPEAAYTTRGGKIPIRWTAPEAIAFRKFTSASDVWSYGIVMWEVVSYGERPYWEMTNQDVIKAVEEGYRLPSPMDCPAALYQLMLDCWQKERNSRPKFDEIVNMLDKLIRNPSSLKTLVNASCRVSNLLAEHSPLGSGAYRSVGEWLEAIKMGRYTEIFMENGYSSMDAVAQVTLEDLRRLGVTLVGHQKKIMNSLQEMKVQLVNGMVPL
B4: DYRK3 (protein)
chain: MGGTARGPGRKDAGPPGAGLPPQQRRLGDGVYDTFMMIDETKCPPCSNVLCNPSEPPPPRRLNMTTEQFTGDHTQHFLDGGEMKVEQLFQEFGNRKSNTIQSDGISDSEKCSPTVSQGKSSDCLNTVKSNSSSKAPKVVPLTPEQALKQYKHHLTAYEKLEIINYPEIYFVGPNAKKRHGVIGGPNNGGYDDADGAYIHVPRDHLAYRYEVLKIIGKGSFGQVARVYDHKLRQYVALKMVRNEKRFHRQAAEEIRILEHLKKQDKTGSMNVIHMLESFTFRNHVCMAFELLSIDLYELIKKNKFQGFSVQLVRKFAQSILQSLDALHKNKIIHCDLKPENILLKHHGRSSTKVIDFGSSCFEYQKLYTYIQSRFYRAPEIILGSRYSTPIDIWSFGCILAELLTGQPLFPGEDEGDQLACMMELLGMPPPKLLEQSKRAKYFINSKGIPRYCSVTTQADGRVVLVGGRSRRGKKRGPPGSKDWGTALKGCDDYLFIEFLKRCLHWDPSARLTPAQALRHPWISKSVPRPLTTIDKVSGKRVVNPASAFQGLGSKLPPVVGIANKLKANLMSETNGSIPLCSVLPKLIS
B5: IKBKB (protein)
chain: MSWSPSLTTQTCGAWEMKERLGTGGFGNVIRWHNQETGEQIAIKQCRQELSPRNRERWCLEIQIMRRLTHPNVVAARDVPEGMQNLAPNDLPLLAMEYCQGGDLRKYLNQFENCCGLREGAILTLLSDIASALRYLHENRIIHRDLKPENIVLQQGEQRLIHKIIDLGYAKELDQGSLCTSFVGTLQYLAPELLEQQKYTVTVDYWSFGTLAFECITGFRPFLPNWQPVQWHSKVRQKSEVDIVVSEDLNGTVKFSSSLPYPNNLNSVLAERLEKWLQLMLMWHPRQRGTDPTYGPNGCFKALDDILNLKLVHILNMVTGTIHTYPVTEDESLQSLKARIQQDTGIPEEDQELLQEAGLALIPDKPATQCISDGKLNEGHTLDMDLVFLFDNSKITYETQISPRPQPESVSCILQEPKRNLAFFQLRKVWGQVWHSIQTLKEDCNRLQQGQRAAMMNLLRNNSCLSKMKNSMASMSQQLKAKLDFFKTSIQIDLEKYSEQTEFGITSDKLLLAWREMEQAVELCGRENEVKLLVERMMALQTDIVDLQRSPMGRKQGGTLDDLEEQARELYRRLREKPRDQRTEGDSQEMVRLLLQAIQSFEKKVRVIYTQLSKTVVCKQKALELLPKVEEVVSLMNEDEKTVVRLQEKRQKELWNLLKIACSKVRGPVSGSPDSMNASRLSQPGQLMSQPSTASNSLPEPAKKSEELVAEAHNLCTLLENAIQDTVREQDQSFTALDWSWLQTEEEEHSCLEQAS
B6: GRK7 (protein)
chain: MVDMGALDNLIANTAYLQARKPSDCDSKELQRRRRSLALPGLQGCAELRQKLSLNFHSLCEQQPIGRRLFRDFLATVPTFRKAATFLEDVQNWELAEEGPTKDSALQGLVATCASAPAPGNPQPFLSQAVATKCQAATTEEERVAAVTLAKAEAMAFLQEQPFKDFVTSAFYDKFLQWKLFEMQPVSDKYFTEFRVLGKGGFGEVCAVQVKNTGKMYACKKLDKKRLKKKGGEKMALLEKEILEKVSSPFIVSLAYAFESKTHLCLVMSLMNGGDLKFHIYNVGTRGLDMSRVIFYSAQIACGMLHLHELGIVYRDMKPENVLLDDLGNCRLSDLGLAVEMKGGKPITQRAGTNGYMAPEILMEKVSYSYPVDWFAMGCSIYEMVAGRTPFKDYKEKVSKEDLKQRTLQDEVKFQHDNFTEEAKDICRLFLAKKPEQRLGSREKSDDPRKHHFFKTINFPRLEAGLIEPPFVPDPSVVYAKDIAEIDDFSEVRGVEFDDKDKQFFKNFATGAVPIAWQEEIIETGLFEELNDPNRPTGCEEGNSSKSGVCLLL
B7: DMPK (protein)
chain: MSAEVRLRRLQQLVLDPGFLGLEPLLDLLLGVHQELGASELAQDKYVADFLQWAEPIVVRLKEVRLQRDDFEILKVIGRGAFSEVAVVKMKQTGQVYAMKIMNKWDMLKRGEVSCFREERDVLVNGDRRWITQLHFAFQDENYLYLVMEYYVGGDLLTLLSKFGERIPAEMARFYLAEIVMAIDSVHRLGYVHRDIKPDNILLDRCGHIRLADFGSCLKLRADGTVRSLVAVGTPDYLSPEILQAVGGGPGTGSYGPECDWWALGVFAYEMFYGQTPFYADSTAETYGKIVHYKEHLSLPLVDEGVPEEARDFIQRLLCPPETRLGRGGAGDFRTHPFFFGLDWDGLRDSVPPFTPDFEGATDTCNFDLVEDGLTAMVSGGGETLSDIREGAPLGVHLPFVGYSYSCMALRDSEVPGPTPMELEAEQLLEPHVQAPSLEPSVSPQDETAEVAVPAAVPAAEAEAEVTLRELQEALEEEVLTRQSLSREMEAIRTDNQNFASQLREAEARNRDLEAHVRQLQERMELLQAEGATAVTGVPSPRATDPPSHLDGPPAVAVGQCPLVGPGPMHRRHLLLPARVPRPGLSEALSLLLFAVVLSRAAALGCIGLVAHAGQLTAVWRRPGAARAP
B8: GSK3A (protein)
chain: MSGGGPSGGGPGGSGRARTSSFAEPGGGGGGGGGGPGGSASGPGGTGGGKASVGAMGGGVGASSSGGGPGGSGGGGSGGPGAGTSFPPPGVKLGRDSGKVTTVVATLGQGPERSQEVAYTDIKVIGNGSFGVVYQARLAETRELVAIKKVLQDKRFKNRELQIMRKLDHCNIVRLRYFFYSSGEKKDELYLNLVLEYVPETVYRVARHFTKAKLTIPILYVKVYMYQLFRSLAYIHSQGVCHRDIKPQNLLVDPDTAVLKLCDFGSAKQLVRGEPNVSYICSRYYRAPELIFGATDYTSSIDVWSAGCVLAELLLGQPIFPGDSGVDQLVEIIKVLGTPTREQIREMNPNYTEFKFPQIKAHPWTKVFKSRTPPEAIALCSSLLEYTPSSRLSPLEACAHSFFDELRCLGTQLPNNRPLPPLFNFSAGELSIQPSLNAILIPPHLRSPAGTTTLTPSSQALTETPTSSDWQSTDATPTLTNSS
B9: GRK6 (protein)
chain: MELENIVANTVLLKAREGGGGNRKGKSKKWRQMLQFPHISQCEELRLSLERDYHSLCERQPIGRLLFREFCATRPELSRCVAFLDGVAEYEVTPDDKRKACGRQLTQNFLSHTGPDLIPEVPRQLVTNCTQRLEQGPCKDLFQELTRLTHEYLSVAPFADYLDSIYFNRFLQWKWLERQPVTKNTFRQYRVLGKGGFGEVCACQVRATGKMYACKKLEKKRIKKRKGEAMALNEKQILEKVNSRFVVSLAYAYETKDALCLVLTLMNGGDLKFHIYHMGQAGFPEARAVFYAAEICCGLEDLHRERIVYRDLKPENILLDDHGHIRISDLGLAVHVPEGQTIKGRVGTVGYMAPEVVKNERYTFSPDWWALGCLLYEMIAGQSPFQQRKKKIKREEVERLVKEVPEEYSERFSPQARSLCSQLLCKDPAERLGCRGGSAREVKEHPLFKKLNFKRLGAGMLEPPFKPDPQAIYCKDVLDIEQFSTVKGVELEPTDQDFYQKFATGSVPIPWQNEMVETECFQELNVFGLDGSVPPDLDWKGQPPAPPKKGLLQRLFSRQDCCGNCSDSEEELPTRL
B10: GRK4 (protein)
chain: MELENIVANSLLLKARQGGYGKKSGRSKKWKEILTLPPVSQCSELRHSIEKDYSSLCDKQPIGRRLFRQFCDTKPTLKRHIEFLDAVAEYEVADDEDRSDCGLSILDRFFNDKLAAPLPEIPPDVVTECRLGLKEENPSKKAFEECTRVAHNYLRGEPFEEYQESSYFSQFLQWKWLERQPVTKNTFRHYRVLGKGGFGEVCACQVRATGKMYACKKLQKKRIKKRKGEAMALNEKRILEKVQSRFVVSLAYAYETKDALCLVLTIMNGGDLKFHIYNLGNPGFDEQRAVFYAAELCCGLEDLQRERIVYRDLKPENILLDDRGHIRISDLGLATEIPEGQRVRGRVGTVGYMAPEVVNNEKYTFSPDWWGLGCLIYEMIQGHSPFKKYKEKVKWEEVDQRIKNDTEEYSEKFSEDAKSICRMLLTKNPSKRLGCRGEGAAGVKQHPVFKDINFRRLEANMLEPPFCPDPHAVYCKDVLDIEQFSVVKGIYLDTADEDFYARFATGCVSIPWQNEMIESGCFKDINKSESEEALPLDLDKNIHTPVSRPNRGFFYRLFRRGGCLTMVPSEKEVEPKQC

The target in the series is T1, Bovine, dephosphorylated, Myelin Basic ….
For the protein B1, the “MBP Kinase Activity” value is recorded as “Strong”.
Consider B2, for which the “MBP Kinase Activity” value is on record as “Strong”.
The entry for B3 is “Negative”.
Take B4: the “MBP Kinase Activity” value is “Negative”.
Consider B5, for which the “MBP Kinase Activity” value is listed as “Weak”.
Turning to B6, the “MBP Kinase Activity” value is listed as “Negative”.
The result for B7 reads “Negative”; that for B8, “Weak”; that for B9, “Negative”.
For B10, the “MBP Kinase Activity” value was “Negative”.
